Measurements: paper PMC12040988, “GET3B is involved in chloroplast biogenesis and interacts with the thylakoidal ALB3 and ALB4 insertases” (Plant Cell Reports, 2025)
One block for each binder: values may come before it.

Biological target: T1, GST-tagged mature full-length GET3b (GST-Get3b) (Arabidopsis thaliana, UniProt A1L4Y1 68-411)
T1 construct: The results say 'GET3B C-terminally fused to GST'; The name GST-Get3b and the vector pGex-4T-3 fit GST at the N-terminus; also called AtGET3B; source: E. coli Rosetta2(DE3), purified (glutathione-sepharose); not shown: GST, N-terminal, kept
T1 sequence (looked up): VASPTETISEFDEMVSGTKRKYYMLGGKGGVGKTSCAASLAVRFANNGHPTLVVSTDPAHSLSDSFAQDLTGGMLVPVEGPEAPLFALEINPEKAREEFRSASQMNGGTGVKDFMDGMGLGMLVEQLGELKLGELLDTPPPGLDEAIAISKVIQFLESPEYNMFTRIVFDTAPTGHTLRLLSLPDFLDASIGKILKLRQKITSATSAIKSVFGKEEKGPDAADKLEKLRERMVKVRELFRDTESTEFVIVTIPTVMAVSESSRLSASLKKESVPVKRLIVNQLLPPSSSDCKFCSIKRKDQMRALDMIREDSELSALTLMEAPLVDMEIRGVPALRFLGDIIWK
Assay: pull-down; 50 μg GST-Get3b (or GST) with 20 μg Alb3C-His or Alb4C-His in 120 μl 1x PBS, 10 min at room temperature; held on glutathione resin 30 min, washed with 5 ml PBS, eluted with 10 mM reduced glutathione; immunoblot with antibodies against Alb3, Alb4 or GST
Conditions: both partners purified

binding result: binds
B1: His-tagged C-terminal region of ALB4 (Alb4C-His) (domain or fragment, Arabidopsis thaliana, UniProt Q9FYL3 334-499, looked up)
chain: VWLQKYGGAKNPVEKFTNLVTKEDKTQQIEKSFSEPLVQKSVSELKIPREKGGEKVTPECPKPGERFRLLKEQEAKRRREKEERQKAEAALSNQNTDKAHEQDEKSDTAIVAEDDKKTELSAVDETSDGTVAVNGKPSIQKDETTNGTFGIGHDTEQQHSHETEKR
notes: ALB4 (STIC1) of Arabidopsis thaliana, stromal C-terminal region, aa 334-499; source: E. coli Rosetta2(DE3), purified (nickel-nitrilotriacetic acid); not shown: His tag, C-terminal, kept

binding result: binds
B2: His-tagged C-terminal region of ALB3 (Alb3C-His) (domain or fragment, Arabidopsis thaliana, UniProt Q8LBP4 350-462, looked up)
chain: VYLRKLGGAKPNMDENASKIISAGRAKRSIAQPDDAGERFRQLKEQEKRSKKNKAVAKDTVELVEESQSESEEGSDDEEEEAREGALASSTTSKPLPEVGQRRSKRSKRKRTV
notes: ALB3 of Arabidopsis thaliana, stromal C-terminal region, aa 350-462; also called Alb3-His; source: E. coli Rosetta2(DE3), purified (nickel-nitrilotriacetic acid); not shown: His tag, C-terminal, kept
